The text below walks through data of patent publication US20170058053A1 (Xencor, published 2017).

Assay [1] addresses T1, FcγRIIIa, V158 isoform (human, UniProt P08637 17-208, limits assumed).
T1 construct: no change against a named entry is printed; also called FcγRIIIa(158V); V158 FcγRIIIa
Briefly: SPR (Biacore), 9518 captured (protein A by the text, HM1.24 by the legend of FIG. 16), receptor concentration series, 1:1 Langmuir global fit. For orientation: In SPR one partner is held on a chip, and binding of the other changes the refractive index at the surface.
Experimental: (§1) Binding measurements were performed using a Biacore® 3000 instrument (Biacore®). Antibodies were captured onto an immobilized Protein A (Pierce) CM5 biosensor chip (Biacore®), generated using a standard primary amine coupling protocol. All measurements were performed in HBS-EP (0.01 M HEPES pH 7.4, 0.15 M NaCl, 3 mM EDTA, 0.005% v/v surfactant P20), and glycine buffer (10 mM glycine-HCl, pH 1.5) was used for the Protein A surface regeneration. All antibodies (50 nM in HBS-EP) were immobilized on the Protein A surface. Fc receptors were injected over antibody bound surface, followed by a dissociation phase. After each cycle, the Protein A surface was regenerated by injecting glycine buffer (pH 1.5). Data were processed by zeroing time and response before the injection of receptor and by subtracting appropriate nonspecific signals (response of reference channel and injection of running buffer).
Data were processed by zeroing time and response before the injection of receptor and by subtracting appropriate nonspecific signals. The equilibrium constant was calculated by global fitting of binding data with a 1:1 Langmuir binding model using BIAevaluation software.

The target of assay [2] is T1, FcγRIIIa, V158 isoform. Briefly: SPR (Biacore); the reference value of native IgG1 (280 nM) is cited from the literature.
Experimental: Affinity of the mAb-Fv for FcγRIIIa was measured using Biacore®. The protein A capture format was used as described above, except that sensorgrams were obtained for a concentration series of receptor analyte in order to calculate an accurate affinity. […] Data were processed by zeroing time and response before the injection of receptor and by subtracting appropriate nonspecific signals (response of reference channel and injection of running buffer). The equilibrium constant was calculated by global fitting of binding data with a 1:1 Langmuir binding model using BIAevaluation software.
Similar binding experiments were carried out for the αHM1.24×αFcγRIIIa mAb-Fv. […] Data were processed by zeroing time and response before the injection of receptor and by subtracting appropriate nonspecific signals. The equilibrium constant was calculated by global fitting of binding data with a 1:1 Langmuir binding model using BIAevaluation software.
The target in assay [3] is T2, HM1.24 antigen on a Biacore chip (UniProt Q10589 49-161, limits assumed).
T2 construct: also called HM1.24 chip
T2 sequence (looked up): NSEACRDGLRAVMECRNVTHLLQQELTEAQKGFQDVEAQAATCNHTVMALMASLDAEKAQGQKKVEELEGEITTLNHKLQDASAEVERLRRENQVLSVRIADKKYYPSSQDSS
In words: SPR (Biacore), 100 nM mAb-Fv injected over a HM1.24 chip.

Assay [4] deals with T3, FcγRIIb (human, UniProt P31994 43-217, limits assumed).
T3 construct: also called CD32b
T3 sequence (looked up): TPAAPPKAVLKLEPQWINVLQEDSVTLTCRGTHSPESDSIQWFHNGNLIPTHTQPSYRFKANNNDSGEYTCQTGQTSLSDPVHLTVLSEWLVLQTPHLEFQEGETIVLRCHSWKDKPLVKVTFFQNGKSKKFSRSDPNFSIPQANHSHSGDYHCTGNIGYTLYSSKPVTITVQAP
Briefly: SPR (Biacore), 9547 captured on protein A, receptor concentration series, 1:1 Langmuir global fit.
Experimental: as §1

For assay [5], the target named is T3, FcγRIIb. Briefly: SPR (Biacore); the reference value of native IgG1 (2.3 µM) is cited from the literature.

T1 sequence (P08637 17-208 F176V limits assumed): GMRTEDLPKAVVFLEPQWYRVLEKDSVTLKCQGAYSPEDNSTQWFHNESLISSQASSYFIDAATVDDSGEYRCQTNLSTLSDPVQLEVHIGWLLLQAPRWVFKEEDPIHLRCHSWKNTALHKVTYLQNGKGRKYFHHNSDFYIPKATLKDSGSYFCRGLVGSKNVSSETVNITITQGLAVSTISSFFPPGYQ

B1: 9518 αHM1.24×αFcγRIIIa mAb-Fv (bispecific antibody, IgG1)
heavy 1: QVQLVQSGAEVKKPGASVKVSCKASGYTFTPYWMQWVRQAPGQGLEWMGSIFPGSGDTRYSQSFQGQVTISADKSISTAYMELSRLRSDDTAVYYCARGLRRGGYYFDYWGQGTLVTVSSASTKGPSVFPLAPSSKSTSGGTAALGCLVKDYFPEPVTVSWNSGALTSGVHTFPAVLQSSGLYSLSSVVTVPSSSLGTQTYICNVNHKPSNTKVDKKVEPKSCDKTHTCPPCPAPELLRGPSVFLFPPKPKDTLMISRTPEVTCVVVDVSHEDPEVKFNWYVDGVEVHNAKTKPREEQYNSTYRVVSVLTVLHQDWLNGKEYKCKVSNKARPAPIEKTISKAKGQPREPQVTTLPPSREEMTKNQVSLTCLVKGFYPSDIAVEWESNGQPENNYKTFPPVLDSDGSFFLYSKLTVDKSRWQQGNVFSCSVMHEALHNHYTQKSLSLSPGKSSDKTHTSPPSPGGGGSGGGGSGGGGSGGGGQVTLKESGPGILQPSQTLSLTCSFSGFSLRTSGMGVGWIRQPSGKGLEWLAHIWWDDDKRYNPALKSRLTISKDTSSNQVFLKIASVDTADTATYYCAQINPAWFAYWGQGTLVTVSASGHHHHHH
heavy 2: QVQLVQSGAEVKKPGASVKVSCKASGYTFTPYWMQWVRQAPGQGLEWMGSIFPGSGDTRYSQSFQGQVTISADKSISTAYMELSRLRSDDTAVYYCARGLRRGGYYFDYWGQGTLVTVSSASTKGPSVFPLAPSSKSTSGGTAALGCLVKDYFPEPVTVSWNSGALTSGVHTFPAVLQSSGLYSLSSVVTVPSSSLGTQTYICNVNHKPSNTKVDKKVEPKSCDKTHTCPPCPAPELLRGPSVFLFPPKPKDTLMISRTPEVTCVVVDVSHEDPEVKFNWYVDGVEVHNAKTKPREEQYNSTYRVVSVLTVLHQDWLNGKEYKCKVSNKARPAPIEKTISKAKGQPREPQVYTLPPSREEMTKNQVHLTCLVKGFYPSDIAVEWESNGQPENNYKTTPPVLDSDGSFALYSKLTVDKSRWQQGNVFSCSVMHEALHNHYTQKSLSLSPGKSSDKTHTSPPSPGGGGSGGGGSGGGGSGGGGDIVLTQSPASLAVSLGQRATISCKASQSVDFDGDSFMNWYQQKPGQPPKLLIYTTSNLESGIPARFSASGSGTDFTLNIHPVEEEDTATYYCQQSNEDPYTFGGGTKLELKSGDYKDDDDK
light: DIVMTQSPLSLPVTLGQPASISCKASQDVNTAVAWYLQKPGKSPKLLIYSASNRYTGVPDRITGSGSGTDFTLKISRVEAEDVGVYYCQQHYSTPFTFGSGTKLEIKRTVAAPSVFIFPPSDEQLKSGTASVVCLLNNFYPREAKVQWKVDNALQSGNSQESVTEQDSKDSTYSLSSTLTLSKADYEKHKVYACEVTHQGLSSPVTKSFNRGEC
notes: mAb-Fv, IgG1 G236R/L328R, hetero-Fc TF-HA, Linker 2; copies: 1 + 1 + 2
In turn, B1 displayed a Kd with FcγRIIIa, V158 isoform [1] of 96 nM. For the same molecule, the “fold tighter than native IgG1” value with FcγRIIIa, V158 isoform [2] is around 2.9 fold. In assay [3], the binding result is reported as “binds”.

B2: 9547 αCD19×αFcγRIIb mAb-Fv (bispecific antibody, IgG1)
heavy 1: EVQLVESGGGLVKPGGSLKLSCAASGYTFTSYVMHWVRQAPGKGLEWIGYINPYNDGTKYNEKFQGRVTISSDKSISTAYMELSSLRSEDTAMYYCARGTYYYGTRVFDYWGQGTLVTVSSASTKGPSVFPLAPSSKSTSGGTAALGCLVKDYFPEPVTVSWNSGALTSGVHTFPAVLQSSGLYSLSSVVTVPSSSLGTQTYICNVNHKPSNTKVDKKVEPKSCDKTHTCPPCPAPELLRGPSVFLFPPKPKDTLMISRTPEVTCVVVDVSHEDPEVKFNWYVDGVEVHNAKTKPREEQYNSTYRVVSVLTVLHQDWLNGKEYKCKVSNKARPAPIEKTISKAKGQPREPQVTTLPPSREEMTKNQVSLTCLVKGFYPSDIAVEWESNGQPENNYKTFPPVLDSDGSFFLYSKLTVDKSRWQQGNVFSCSVMHEALHNHYTQKSLSLSPGKGGGGSGGGGSGGGGSGGGGSGGGGSGGGGQVQLQQPVTELVRPGASVMLSCKASDYPFTNYWIHWVKQRPGQGLEWIGVIDPSDTYPNYNKKFKGKATLTVVVSSSTAYMQLSSLTSDDSAVYYCARNGDSDYYSGMDYWGQGTSVTVSSGSHHHHHH
heavy 2: EVQLVESGGGLVKPGGSLKLSCAASGYTFTSYVMHWVRQAPGKGLEWIGYINPYNDGTKYNEKFQGRVTISSDKSISTAYMELSSLRSEDTAMYYCARGTYYYGTRVFDYWGQGTLVTVSSASTKGPSVFPLAPSSKSTSGGTAALGCLVKDYFPEPVTVSWNSGALTSGVHTFPAVLQSSGLYSLSSVVTVPSSSLGTQTYICNVNHKPSNTKVDKKVEPKSCDKTHTCPPCPAPELLRGPSVFLFPPKPKDTLMISRTPEVTCVVVDVSHEDPEVKFNWYVDGVEVHNAKTKPREEQYNSTYRVVSVLTVLHQDWLNGKEYKCKVSNKARPAPIEKTISKAKGQPREPQVYTLPPSREEMTKNQVHLTCLVKGFYPSDIAVEWESNGQPENNYKTTPPVLDSDGSFALYSKLTVDKSRWQQGNVFSCSVMHEALHNHYTQKSLSLSPGKGGGGSGGGGSGGGGSGGGGSGGGGSGGGGDILLTQSPAILSVSPGERVSFSCRTSQSIGTNIHWYQQRTNGFPRLLIKNVSESISGIPSRFSGSGSGTDFILSINSVESEDIADYYCQQSNTWPFTFGGGTKLEIKGSHHHHHH
light: DIVMTQSPATLSLSPGERATLSCRSSKSLQNVNGNTYLYWFQQKPGQSPQLLIYRMSNLNSGVPDRFSGSGSGTEFTLTISSLEPEDFAVYYCMQHLEYPITFGAGTKLEIKRTVAAPSVFIFPPSDEQLKSGTASVVCLLNNFYPREAKVQWKVDNALQSGNSQESVTEQDSKDSTYSLSSTLTLSKADYEKHKVYACEVTHQGLSSPVTKSFNRGEC
notes: mAb-Fv, IgG1 G236R/L328R, hetero-Fc TF-HA, Linker 3; also called 9547 mAb-Fv; copies: 1 + 1 + 2
On to B2, for which the Kd in the assay with FcγRIIb [4] was 44 nM. In addition, the “fold tighter than native IgG1” value with FcγRIIb [5] was around 52 fold.

In general, Kd refers to the free concentration of one partner at which half of the binding sites on the other are occupied at equilibrium, for simple one-to-one binding. The low end stands for higher affinity, the high end for lower affinity.
